Test results published in patent US20240084042A1 (Genentech, published 2024).

What was measured:
huKLK11 = molecular target: T1, huKLK11 (human, UniProt Q9UBX7 54-282, limits assumed); experiment: SPR (BIAcore T200), as for Table 1
T1 sequence (looked up): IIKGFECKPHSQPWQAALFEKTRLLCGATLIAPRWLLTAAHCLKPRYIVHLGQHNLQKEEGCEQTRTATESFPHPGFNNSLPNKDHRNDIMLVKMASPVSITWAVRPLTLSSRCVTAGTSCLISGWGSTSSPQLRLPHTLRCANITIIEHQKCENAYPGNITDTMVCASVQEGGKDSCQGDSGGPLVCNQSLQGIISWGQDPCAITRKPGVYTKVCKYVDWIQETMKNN

human KLK5 = molecular target: T2, human KLK5 (human, UniProt Q9Y337 67-293); experiment: SPR (BIAcore T200), as for Table 1
T2 construct: also called huKLK5; KLK5 AMC
T2 sequence: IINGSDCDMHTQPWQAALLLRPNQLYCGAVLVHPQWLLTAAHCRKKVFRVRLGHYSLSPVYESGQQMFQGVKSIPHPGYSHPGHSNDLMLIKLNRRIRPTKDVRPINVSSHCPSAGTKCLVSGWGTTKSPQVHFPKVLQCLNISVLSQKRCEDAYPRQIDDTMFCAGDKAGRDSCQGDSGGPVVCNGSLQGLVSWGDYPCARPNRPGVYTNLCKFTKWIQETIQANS

huKLK1 = huKLK1 (human, UniProt P06870 25-262, limits assumed); experiment: SPR (BIAcore T200), as for Table 1
Chain of huKLK1 (P06870 25-262 limits assumed): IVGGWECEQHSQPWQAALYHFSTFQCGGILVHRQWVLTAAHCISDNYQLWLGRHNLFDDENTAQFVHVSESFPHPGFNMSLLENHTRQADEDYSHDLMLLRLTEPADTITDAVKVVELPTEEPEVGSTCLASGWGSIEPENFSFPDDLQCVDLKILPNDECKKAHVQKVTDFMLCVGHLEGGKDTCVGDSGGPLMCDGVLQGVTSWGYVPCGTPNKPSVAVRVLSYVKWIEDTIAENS

huKLK4 = huKLK4 (human, UniProt Q9Y5K2 31-254, limits assumed); experiment: SPR (BIAcore T200), as for Table 1
Chain of huKLK4 (Q9Y5K2 31-254 limits assumed): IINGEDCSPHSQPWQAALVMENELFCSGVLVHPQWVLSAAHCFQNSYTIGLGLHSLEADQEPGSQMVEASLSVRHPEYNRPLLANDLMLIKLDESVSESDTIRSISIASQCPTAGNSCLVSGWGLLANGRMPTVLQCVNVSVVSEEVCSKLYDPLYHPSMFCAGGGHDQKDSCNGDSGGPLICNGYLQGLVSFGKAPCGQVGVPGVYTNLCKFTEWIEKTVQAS

[1] = molecular target: cyano KLK7 (SEQ ID NO: 6 plus a C-terminal FLAG tag) (cynomolgus monkey, UniProt P49862 30-253 (human entry)); experiment: cell-based or functional assay
Chain of cyano KLK7 (SEQ ID NO: 6 plus a C-terminal FLAG tag) (P49862 other isoform, or with tags, fused parts or gaps): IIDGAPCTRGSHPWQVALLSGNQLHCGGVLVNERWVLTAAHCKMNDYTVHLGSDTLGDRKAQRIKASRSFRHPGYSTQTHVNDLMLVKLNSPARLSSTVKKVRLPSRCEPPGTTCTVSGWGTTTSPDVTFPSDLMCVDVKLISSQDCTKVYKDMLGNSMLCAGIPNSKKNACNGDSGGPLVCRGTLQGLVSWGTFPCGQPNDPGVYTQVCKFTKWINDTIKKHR

[2] = molecular target: human KLK7 (SEQ ID NO: 4 plus a C-terminal FLAG tag) (human, UniProt P49862 30-253); experiment: cell-based or functional assay
Chain of human KLK7 (SEQ ID NO: 4 plus a C-terminal FLAG tag) (P49862 30-253): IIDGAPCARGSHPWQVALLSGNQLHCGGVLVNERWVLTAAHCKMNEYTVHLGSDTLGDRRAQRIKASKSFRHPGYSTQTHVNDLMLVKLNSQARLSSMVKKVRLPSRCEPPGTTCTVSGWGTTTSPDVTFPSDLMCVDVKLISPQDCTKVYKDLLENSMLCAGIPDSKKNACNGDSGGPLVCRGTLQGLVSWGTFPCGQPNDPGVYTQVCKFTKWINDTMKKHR

cynomolgus monkey KLK7 = molecular target: T3, cynomolgus monkey KLK7 (cynomolgus monkey, UniProt P49862 30-253 (human entry)); experiment: SPR BIAcore T200, antibody on protein A chip, 25 C
T3 construct: Antigen injected in SPR; also called Cy KLK7; cyno KLK7
T3 sequence (P49862 other isoform, or with tags, fused parts or gaps): as the sequence (P49862 other isoform, or with tags, fused parts or gaps) above
Procedure: (§1) The binding affinity of the antibodies was determined by BIAcore™ T200 machine. Rabbit antibodies were recombinantly expressed. For kinetics measurements, antibodies were captured on research grade protein A chip (GE Healthcare, USA) to achieve approximately 300 RU. Ten-fold serial dilutions of human and cyano KLK7 were injected in HBS-P buffer at 25° C. with a flow rate of 30 μL/min. Association rates (ka) and dissociation rates (kd) were calculated using a 1:1 Langmuir binding model (BIAcore™ T200 Evaluation Software version 2.0). The equilibrium dissociation constant (KD) was calculated as the ratio kd/ka.

human KLK7 = molecular target: T4, human KLK7 (human, UniProt P49862 30-253); experiment: SPR BIAcore T200, antibody on protein A chip, 25 C
T4 construct: Antigen injected in SPR; also called hu KLK7; huKLK7
T4 sequence (P49862 30-253): as the sequence (P49862 30-253) above
Procedure: as §1

binding result (huKLK11): no binding
binding result (human KLK5): no binding
binding result (huKLK1): no binding
binding result (huKLK4): no binding
IC50, KLK7 direct functional assay (Mca peptide substrate), bivalency not accounted for [1]: 0.15 nM
IC50, KLK7 direct functional assay (Mca peptide substrate), bivalency not accounted for [2]: 0.11 nM
koff (cynomolgus monkey KLK7): < 1e-06 s⁻¹
koff (human KLK7): < 1e-06 s⁻¹
B1: 14H11 (antibody, V domains shown)
VH: QSLEESGGDLVKPGASLTLTCTASGFSFSSSYYMCWVRQAPGKGLEWIASIYAGSSGAPYYAGWAKGRFTISKTSSTAVTLQMSSLTAADTATYFCAREGFAETGGYGYAAYFNLWGPGTLVTVSS
VL: AIEMTQSPPSLSASVGETVRIRCLASEDIASSVSWYQQKPGKPPTLLIYGASNLESGVPPRFTGSGSGTDYTLTIGGVQAEDAATYYCLGGYSYSSTGTAFGAGTKVEIK
notes: Recombinant rabbit anti-KLK7 monoclonal antibody, expressed in Expi293 cells, protein A purified, bivalent; also called rb.14H11
